Assay [1] addresses T1, HIS-tagged recombinant F protein from RSV Long strain (Respiratory Syncytial Virus Long strain, UniProt P12568 26-524).
T1 construct: also called recombinant HIS tagged F protein; recombinant RSV F Long strain containing a poly HIS tag; not shown: poly HIS tag
The assay is described as follows: direct ELISA, HIS-tagged F on Ni-NTA HisSorp plates. In general terms: An ELISA detects its analyte on a solid surface through an enzyme-linked reagent.

For assay [2], the target named is F protein of RSV A2 virus (on virus particles, neutralization assay) (Respiratory Syncytial Virus A2, UniProt P03420 26-574). The assay is described as follows: cell-based or functional assay.

Data on two molecules can be found in patent publication US20120070446A1 (AstraZeneca / MedImmune, published 2012).

T1 sequence (P12568 26-524): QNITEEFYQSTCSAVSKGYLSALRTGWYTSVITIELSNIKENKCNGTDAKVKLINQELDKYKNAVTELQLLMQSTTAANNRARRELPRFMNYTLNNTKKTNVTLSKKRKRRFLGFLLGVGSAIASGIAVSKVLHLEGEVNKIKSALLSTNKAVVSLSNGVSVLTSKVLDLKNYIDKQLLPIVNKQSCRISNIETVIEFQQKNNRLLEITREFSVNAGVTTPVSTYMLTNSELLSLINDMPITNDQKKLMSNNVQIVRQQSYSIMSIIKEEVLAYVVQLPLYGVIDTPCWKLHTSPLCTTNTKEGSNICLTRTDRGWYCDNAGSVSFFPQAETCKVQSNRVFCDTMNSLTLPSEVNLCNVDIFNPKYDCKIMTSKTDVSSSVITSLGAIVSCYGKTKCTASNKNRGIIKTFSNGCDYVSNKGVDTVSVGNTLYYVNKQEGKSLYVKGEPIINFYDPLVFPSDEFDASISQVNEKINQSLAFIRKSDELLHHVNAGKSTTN

B1: AM22 (recombinant AM22 mAb, human IgG1/Kappa) (antibody, V domains shown)
VH: QVQLVQSGAEVKKPGATVKVSCKISGHTLIKLSIHWVRQAPGKGLEWMGGYEGEVDEIFYAQKFQHRLTVIADTATDTVYMELGRLTSDDTAVYFCGTLGVTVTEAGLGIDDYWGQGTLVTVSS
VL: EIVLTQSPGTLSLSPGERATLSCRASQIVSRNHLAWYQQKPGQAPRLLIFGASSRATGIPVRFSGSGSGTDFTLTINGLAPEDFAVYYCLSSDSSIFTFGPGTKVDFK
notes: also called AM22 antibody; AM22 monoclonal antibody
In the case of B1, the binding result in assay [1] is “no binding”.

B2: palivizumab (antibody, V domains shown)
VH: QVTLRESGPALVKPTQTLTLTCTFSGFSLSTSGMSVGWIRQPPGKALEWLADIWWDDKKDYNPSLKSRLTISKDTSKNQVVLKVTNMDPADTATYYCARSMITNWYFDVWGAGTTVTVSS
VL: DIQMTQSPSTLSASVGDRVTITCKCQLSVGYMHWYQQKPGKAPKLLIYDTSKLASGVPSRFSGSGSGTEFTLTISSLQPDDFATYYCFQGSGYPFTFGGGTKLEIK
Regarding B2, the “IC50 (ng/ml), RSV neutralizing activity, TCID50 culture assay on HEp2 cells with the RSV A2 virus” value in assay [2] amounted to 152 ng/mL.
